The text below walks through data of paper PMC4231456, “HIV-1 Tat protein binds to TLR4-MD2 and signals to induce TNF-α and IL-10” (Retrovirology, 2013).

Test [1] has as its target GST-Tat 1-101 (HIV-1 Tat protein) (HIV-1). Put plainly: ELISA; competition: GST-Tat 1-101 or GST-Tat 1-45 (0.1 μM) pre-incubated 1 h at 37°C with increasing amounts of soluble rhMD2, rhTLR4-MD2, rhTLR4 or rhCD14, then 2 h on coated rhMD2 (or TLR4-MD2); OD 450 nm; K0.5 taken as an apparent dissociation constant. (In general: An ELISA detects its analyte on a solid surface through an enzyme-linked reagent.)

The target of the next test is T1, recombinant human TLR4 (human, UniProt O00206 24-631).
T1 construct: human Toll-like receptor 4 (TLR4), recombinant, used coated or soluble without MD2; also called rhTLR4; rh TLR4
Put plainly: ELISA; rh TLR4 coated at 1 μg/ml; MD2 at 1-10 μg/ml in solution; detected with anti-MD2 monoclonal antibodies. The conditions noted are these: both partners purified.

Sequence of GST-Tat 1-101 (HIV-1 Tat protein) (HIV-1) (P04614 whole entry): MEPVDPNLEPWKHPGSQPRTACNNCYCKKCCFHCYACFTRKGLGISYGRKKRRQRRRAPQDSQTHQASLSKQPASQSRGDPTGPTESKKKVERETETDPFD
T1 sequence (O00206 24-631): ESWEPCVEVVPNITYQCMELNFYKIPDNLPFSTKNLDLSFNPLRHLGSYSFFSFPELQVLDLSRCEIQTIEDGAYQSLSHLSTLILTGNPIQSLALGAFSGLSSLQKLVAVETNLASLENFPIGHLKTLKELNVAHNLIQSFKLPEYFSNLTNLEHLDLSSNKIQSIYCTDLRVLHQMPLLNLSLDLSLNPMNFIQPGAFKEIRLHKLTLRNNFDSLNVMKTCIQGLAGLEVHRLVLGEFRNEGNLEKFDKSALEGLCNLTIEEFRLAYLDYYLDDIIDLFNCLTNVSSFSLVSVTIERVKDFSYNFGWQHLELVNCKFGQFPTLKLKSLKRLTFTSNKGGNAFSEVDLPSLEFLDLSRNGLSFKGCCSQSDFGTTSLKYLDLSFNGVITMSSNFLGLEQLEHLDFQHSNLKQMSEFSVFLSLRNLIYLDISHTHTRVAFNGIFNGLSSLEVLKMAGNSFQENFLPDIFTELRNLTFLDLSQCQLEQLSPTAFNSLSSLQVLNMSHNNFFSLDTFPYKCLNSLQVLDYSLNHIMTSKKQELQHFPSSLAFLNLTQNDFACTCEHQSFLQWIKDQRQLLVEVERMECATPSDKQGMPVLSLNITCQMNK

By IC50 is commonly meant the concentration that gives 50% inhibition. Regarding “recombinant human TLR4-MD2 complex (from UniProt O00206 24-631; Q9Y6Y9 19-160)”, the IC50 in test [1] amounted to 1 nM.

B1: recombinant human MD2 (natural protein, UniProt Q9Y6Y9 19-160, looked up)
chain: QKQYWVCNSSDASISYTYCDKMQYPISINVNPCIELKRSKGLLHIFYIPRRDLKQLYFNLYITVNTMNLPKRKEVICRGSDDDYSFCRALKGETVNTTISFSFKGIKFSKGKYKCVVEAISGSPEEMLFCLEFVILHQPNSN
notes: human MD2 (lymphocyte antigen 96), soluble recombinant; No catalogue number printed; also called rhMD2; hMD2; source: bought: R&D Systems
Turning to B1, in test [1], the IC50 worked out at 4 nM and the percent inhibition of Tat binding to coated MD2 with soluble MD2 at 1 μg/ml was more than 95%. Also, the binding result in the test with recombinant human TLR4 is “binds”.
